Source: US8846363B2, “Compositions of and methods of using sulfatases from Flavobacterium heparinum” (priority 2007, dated 2014)

Assays:
[1] = substrate: CC(=O)N[C@H]1[C@H](Oc2ccc3c(C)cc(=O)oc3c2)O[C@H](COS(=O)(=O)O)[C@@H](O)[C@@H]1O; test: Steady-state kinetics, coupled 6-O-sulfatase/β-glucosidase fluorimetric assay with 4-MU-GlcNAc,6S; format: biochemical, Flavobacterium heparinum (Pedobacter heparinus)
From the text: (§1) Recombinant protein expression in the E. coli strain BL21(DE3) and one-step affinity purification by nickel chelation chromatography were as described for 2-O-sulfatase (Myette et al., 2003 J Biol Chem 278, 12157-12166). The prediction of NH2-terminal signal sequences and putative cleavage sites for the two respective proteins was made by the Von Heijne computational method (Nielsen et al., 1997 Protein Eng 10, 1-6.). Engineering and expression of these truncated proteins (minus signal sequences) were as described above for the full-length genes with the exception of substituting the 5′ primers which were used in the original PCR amplification step. These internal primers included 5′ TCTAGACATATGTCTTGCCAGCAGCCTAAAC 3′ (for ORF B; SEQ ID NO: 15) and 5′ TCTAGACATATGTCCTGCACTTCGCCGGAA 3′ (for ORF C; SEQ ID NO: 16), with the Nde 1 site underlined. As such, the ORF B gene sequence begins at Met 18 (FIG. 1). Likewise, the ORF C gene sequence begins at Ser 21 (FIG. 2). Removal of the 6×His tag was achieved by site-specific protease cleavage using the thrombin cleavage capture kit (Novagen, San Diego, Calif.). Proteolysis conditions were generally as described for other recombinantly expressed flavobacterial heparin degrading enzymes. Following concentrating the enzymes by ultrafiltration, cleaved proteins were dialyzed overnight against 4 liters of 50 mM Tris, pH 7.5 and 0.1 M NaCl, 4° C., using a 3 mL slide-a-lyzer cassette with a 10,000 molecular weight cutoff (MWCO) (Pierce Chemical, Rockland, Ill.).
Coupled Enzyme Assay for the Determination of Biochemical Reaction Conditions and Steady-State Kinetics
Indirect measurement of enzyme activity was also made using a fluorimetrically-based plate assay in which the prerequisite desulfation of the appropriate glucopyranoside 1→4 methlybelliferone substrate by either the 6-O-sulfatase or N-sulfamidase was coupled to the glucosidase-mediated hydrolysis of the stereo-specific 1→4 glycosidic linkage between the pyranose ring and the adjoining fluorophore. Release of the free fluorophore (4-MU) was monitored spectroscopically as described above for the arylsulfatase assay using 4-MU sulfate. The two sulfatase assays differed in the choice of substrate in accordance to their specificity as well as the glucosidase added during the second, […] step. For the 6-O-sulfatase, the hydrolysis of the substrate 4-MU-β-D-GlcNAc,6S at the 6-OH position was coupled to β-glucosidase purified from sweet almonds (MP Biomedicals, Solon, Ohio, Catalog No. 195197). Likewise, N-sulfamidase hydrolysis of 4-MU-α-D-GlcNS at the 2-amino position was coupled to α-glucosidase (MP Biomedicals, Catalog No. 153487). […] The presumption of the first (sulfatase) activity being the rate-limiting step was established experimentally. Reaction conditions were optimized to satisfy three related criteria: 1) linear readout of fluorescent signal which is directly proportional to sulfatase activity; 2) quantitative release of 4-MU by glucosidase activity under every biochemical condition examined and; 3) negligible fluorescent quenching of the free chromophore.
For the 6-O-sulfatase/β-glucosidase assay, the standard reaction conditions included 2 μM recombinant enzyme, 50 mM sodium acetate buffer, pH 5.5, and 5 mM CaCl2 in a 20 μl reaction volume. 4-MU-GlcNAc,6S substrate concentration was varied from 0.1-2 mM. 2 μL of enzyme were added to each well of a microtiter plate (prechilled on ice), plate gently vortexed, and contents of each well spun down for 1 minute at 500×g, 4° C. The assay was initiated by transferring the 96 well plate to a heating block prequilibrated at 30° C. Sulfatase incubation (first enzyme) was carried out at 30° C. for 20 minutes, after which enzyme activity was inactivated by heat denaturation (95° C., 10 minutes). In the second enzyme (glucosidase) step, the microtiter plate was once again chilled on ice. […]

[2] = substrate: Cc1cc(=O)oc2cc(O[C@H]3O[C@H](CO)[C@@H](O)[C@H](O)[C@H]3NS(=O)(=O)O)ccc12; test: Steady-state kinetics, coupled N-sulfamidase/α-glucosidase fluorimetric assay with 4-MU-GlcNS; format: biochemical, Flavobacterium heparinum (Pedobacter heparinus)
From the text: as §1, with “Following concentrating the enzymes by ultrafiltration, cleaved proteins were dialyzed overnight against 4 liters of 50 mM Tris, pH 7.5 and 0.1 M NaCl, 4° C., using a 3 mL slide-a-lyzer cassette with a 10,000 molecular weight cutoff (MWCO) (Pierce Chemical, Rockland, Ill.).” left out
Indirect measurement of enzyme activity was also made using a fluorimetrically-based plate assay in which the prerequisite desulfation of the appropriate glucopyranoside 1→4 methlybelliferone substrate by either the 6-O-sulfatase or N-sulfamidase was coupled to the glucosidase-mediated hydrolysis of the stereo-specific 1→4 glycosidic linkage between the pyranose ring and the adjoining fluorophore. Release of the free fluorophore (4-MU) was monitored spectroscopically as described above for the arylsulfatase assay using 4-MU sulfate. […] Reaction conditions were optimized to satisfy three related criteria: 1) linear readout of fluorescent signal which is directly proportional to sulfatase activity; 2) quantitative release of 4-MU by glucosidase activity under every biochemical condition examined and; 3) negligible fluorescent quenching of the free chromophore.
Coupled N-sulfamidase assay was generally described for the 6-O-sulfatase, but with the following modifications: 4-MU-GlcNS as substrate, 50 mM sodium acetate at pH 6.0 (instead of 5.5) and 1 μM enzyme. […] The obvious difference in enzyme efficacies between α-glucosidase versus β-glucosidase is reflected in the substantially longer incubation times required for the α-glucosidase to quantitatively hydrolyze the glycosidic α1→4 linkage between the fluorophore and the desulfated glucosamine. […]

[3] = CE-LIF detection of sequentially degraded oligosaccharides; format: biochemical; settings: after Δ4,5 glycuronidase treatment of ΔUHNSIHNSIHNS
Protocol: The APTS derivitization protocol was adapted from Chen et al. (Chen F. T. A., and Evangelista R. A. (1995) Analytical Biochemistry 230, 273-280). Briefly, 2 μl of 100 mM 9-aminopyrene-1,4,6-trisulfonate (APTS) in 25% acetic acid (v/v) were mixed with 10 μl of 1M sodium cyanoborohydride in tetrohydrofuran and 1 μmol of saccharide. The reaction mixture was incubated at 75° C. for 2 hr and was diluted 1:100 prior to CE analysis. CE-LIF was performed on a Beckman Coulter ProteomeLab PA 800 with 488 nm argon LIF module. Samples were loaded onto a N—CHO capillary (50 μm I.D.×65 cm total length) using 0.5 psi of pressure at the anode for 20 sec. Electrophoretic separations were performed using a 20 kV potential in a 100 mM sodium borate, pH 10.2 buffer for 15 min at 25° C. Fluorescence emission spectra were collected using a 520 nm narrow band filter.

[4] = other: Addition: 0.5 mM Ca^+2, pH 5.5, 30° C.
[5] = other: Addition: 5 mM Ca^+2, pH 5.5, 30° C.
[6] = other: Addition: none, pH 5.5, 30° C.
[7] = other: Addition: 0.5 mM Ca^+2, pH 6.0, 37.0 °C
[8] = other: Addition: 5 mM Ca^+2, pH 6.0, 37.0 °C

| Molecule | Km [1, 4] [µM] | kcat [1, 4] [s⁻¹] | Km [1, 5] [µM] | kcat [1, 5] [s⁻¹] | Km [1, 6] [µM] | kcat [1, 6] [s⁻¹] | Km [2, 7] [µM] | kcat [2, 7] [s⁻¹] | Km [2, 8] [µM] | kcat [2, 8] [s⁻¹] | desulfation of oligosaccharide at the non-reducing end [3] |
| --- | --- | --- | --- | --- | --- | --- | --- | --- | --- | --- | --- |
| Flavobacterium heparinum 6-O-sulfatase (ORF B), recombinant, NH2-terminal truncation lacking signal sequence, SEQ ID NO: 2 (Pedobacter heparinus DSM 2366) (protein, E. coli BL21(DE3), N-terminal 6xHis removed by thrombin) TLMSCQQPKPAESAKRPNIVFIMTDDHTIQAISAYGSKLVKTPNLDRIANEGMLFNNCFVTNAVCGPSRATILTGKYSHLNGLTDNSKVFDSTQVIYPQLLKKAGYQTAMIGKWHLGSTPMGFDYYSILPNQGQYYQPEFIENGHLVKEKGYVTDLITDKAIGFLEKRDHDKPFLMIYQHKAPHRNWLPAPRHLGMFDDTVFPEPANLLDDFKGRGRAAKEQLMNISTDMWPAWDLKMLSTAQLDSMAKLPVSPKFKDAKGDDYQQANDPSLDKARFFEVYNRMTDAEKVQWRKVYDKRVAEFKRLNPKGADLVRWKYQQYMRDYLACVVSVDENVGRLMDYLKKIGELDNTIIVYTSDQGFYLGEHGYFDKRFMYDESFRTPLMVRYPPSVKAGSVSNAFAMNLDFAPTLLDYAGVKIPADMQGLSLRPVLDNAGKSPENWRKAVYYHYYEFPSWHMVKRHYGIRTERYKLIHFYNDIDEWELYDMQKDPHEMQNLYNDKAYEPIIKDLKVQMKKLQVQYKDTNPTEAL | 217 | 0.055 | 327 | 0.113 | 146 | 0.0417 |  |  |  |  |  |
| Flavobacterium heparinum N-sulfamidase (ORF C), recombinant, NH2-terminal truncation lacking signal sequence, SEQ ID NO: 4 (Pedobacter heparinus DSM 2366) (protein, E. coli BL21(DE3), N-terminal 6xHis removed by thrombin) SCTSPEKKTDRPNILMIMSDNQSWNHVGSYGDQTVRTPNMDRIAKEGVRFTNAFCSSPSCTPARAGMLTGQDIWRLEDGGNLWGVLPVKYKVYPDLLEEAGYAIGFQGKGWGPGSFEANKRPRNPAGNEFKSFGAFLKDKKEGPWCYWISSHEPHRPYVEGSGEKAGIDPNKVKVPAYLPDHISIRKDIADYYAAVETFDRELGEALDQLKASGELDNTVIVVCSDNGWQMPRGLANLYDFGTHVPLIISWPGKFKQDVVADNLVTLNDLAPTFLQLGKVPVPADMTGKSLLPIVEAGKKDEKPRDYVVLGRERHAFVRRHGLGYPGRAIRTKDYLYIKNYEPNRWPAGDPPFYGDIDPYMFNWPGETKYYLIEHKDDPKVKSFFELGMGKRPAEELFDINKDPDELHNLAALPEYQKIKQELVAKLRNYLVATKDPRETNGNIQIWDTAAYFSEIDKTPKPSKEMQKRFKLDSSYNYLK |  |  |  |  |  |  | 45 | 0.085 | 178 | 0.365 | does desulfate some oligosaccharides in an exolytic fashion |
